Among the data in PMC5493754, “Myosin 7 and its adaptors link cadherins to actin” (Nature Communications, 2017) are Kd values, retold here.

Sequences and labels used below:
B2: Harmonin-a PDZ2-end (domain or fragment, human, UniProt Q9Y6N9-1 194-552, looked up)
chain: GVRGSLGSPGNRENKEKKVFISLVGSRGLGCSISSGPIQKPGIFISHVKPGSLSAEVGLEIGDQIVEVNGVDFSNLDHKEAVNVLKSSRSLTISIVAAAGRELFMTDRERLAEARQRELQRQELLMQKRLAMESNKILQEQQEMERQRRKEIAQKAAEENERYRKEMEQIVEEEEKFKKQWEEDWGSKEQLLLPKTITAEVHPVPLRKPKYDQGVEPELEPADDLDGGTEEQGEQDFRKYEEGFDPYSMFTPEQIMGKDVRLLRIKKEGSLDLALEGGVDSPIGKVVVSAVYERGAAERHGGIVKGDEIMAINGKIVTDYTLAEAEAALQKAWNQGGDWIDLVVAVCPPKEYDDELTFF
notes: Harmonin-a1 (USH1C), human, residues 194-552 of UniProt Q9Y6N9-1; also called PDZ2-end (isoA); source: E. coli BL21 (DE3) Rosetta, purified (Glutathione Sepharose 4B, size-exclusion chromatography)

Holding throughout (conditions): both partners purified
The target in experiment [1] is B2. Description: MST; YFP-fused partner constant at 100 nM, non-fluorescent protein titrated (16 two-fold dilutions); 20 mM Hepes pH 7.0, 100 mM NaCl, 1 mM EGTA, 0.5 mM TCEP, 0.05% Tween 20; Monolith NT.115.
Experiment [2] addresses T1, YFP-Myosin 7a MF2 (human, UniProt Q13402-1 1702-2215).
T1 construct: Myosin 7a, human, MF2, residues 1702-2215 of UniProt Q13402-1; pET14-YFP vector; also called ^YFPM7a MF2; source: E. coli (BL21-AI, BL21 (DE3) Rosetta or BL21-Gold (DE3)), purified (Histrap, CaptoQ, gel filtration)
T1 sequence (looked up): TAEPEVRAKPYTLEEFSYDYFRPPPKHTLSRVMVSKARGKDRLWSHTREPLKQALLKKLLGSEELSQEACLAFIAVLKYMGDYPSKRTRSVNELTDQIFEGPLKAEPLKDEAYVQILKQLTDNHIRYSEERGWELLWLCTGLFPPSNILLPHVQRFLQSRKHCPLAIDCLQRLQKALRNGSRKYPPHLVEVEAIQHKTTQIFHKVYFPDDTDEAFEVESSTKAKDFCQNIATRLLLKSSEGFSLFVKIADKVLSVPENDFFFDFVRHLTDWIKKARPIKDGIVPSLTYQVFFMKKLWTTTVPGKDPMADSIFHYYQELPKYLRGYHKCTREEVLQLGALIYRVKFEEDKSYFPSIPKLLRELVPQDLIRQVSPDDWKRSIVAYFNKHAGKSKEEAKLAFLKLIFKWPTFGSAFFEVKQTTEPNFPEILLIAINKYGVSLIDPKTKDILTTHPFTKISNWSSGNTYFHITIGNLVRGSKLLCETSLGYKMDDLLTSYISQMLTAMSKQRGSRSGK
Described as above.

The target in experiment [3] is T2, YFP-Myosin 7b MF2 (human, UniProt Q6PIF6 1605-2116).
T2 construct: Myosin 7b, human, MF2, residues 1605-2116 of UniProt Q6PIF6; pET14-YFP vector; also called ^YFPM7b MF2; source: E. coli (BL21-AI, BL21 (DE3) Rosetta or BL21-Gold (DE3)), purified (Histrap, CaptoQ, gel filtration)
T2 sequence (looked up): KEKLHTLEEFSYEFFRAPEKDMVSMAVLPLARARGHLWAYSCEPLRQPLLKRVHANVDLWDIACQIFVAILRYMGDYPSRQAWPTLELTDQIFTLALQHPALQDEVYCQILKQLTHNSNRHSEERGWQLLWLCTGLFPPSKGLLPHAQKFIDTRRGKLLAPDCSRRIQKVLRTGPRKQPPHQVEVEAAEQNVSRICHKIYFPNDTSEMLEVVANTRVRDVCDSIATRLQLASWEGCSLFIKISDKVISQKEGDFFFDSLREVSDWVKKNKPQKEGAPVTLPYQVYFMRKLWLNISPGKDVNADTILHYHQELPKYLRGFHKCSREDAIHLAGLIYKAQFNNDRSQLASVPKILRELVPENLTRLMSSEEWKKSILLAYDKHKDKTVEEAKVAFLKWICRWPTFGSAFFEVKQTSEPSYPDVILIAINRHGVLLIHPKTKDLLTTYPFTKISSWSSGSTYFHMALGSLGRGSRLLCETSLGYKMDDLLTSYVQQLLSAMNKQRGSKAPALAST
The experiment is described as above.

The target in experiment [4] is T3, YFP-FL-harmonin-ΔCter (human, UniProt Q9Y6N9-1 1-542).
T3 construct: Harmonin-a1 (USH1C), human, residues 1-542 of UniProt Q9Y6N9-1; also called ^YFPFL ΔCter; source: E. coli BL21 (DE3) Rosetta, purified (Glutathione Sepharose 4B, size-exclusion chromatography)
T3 sequence (looked up): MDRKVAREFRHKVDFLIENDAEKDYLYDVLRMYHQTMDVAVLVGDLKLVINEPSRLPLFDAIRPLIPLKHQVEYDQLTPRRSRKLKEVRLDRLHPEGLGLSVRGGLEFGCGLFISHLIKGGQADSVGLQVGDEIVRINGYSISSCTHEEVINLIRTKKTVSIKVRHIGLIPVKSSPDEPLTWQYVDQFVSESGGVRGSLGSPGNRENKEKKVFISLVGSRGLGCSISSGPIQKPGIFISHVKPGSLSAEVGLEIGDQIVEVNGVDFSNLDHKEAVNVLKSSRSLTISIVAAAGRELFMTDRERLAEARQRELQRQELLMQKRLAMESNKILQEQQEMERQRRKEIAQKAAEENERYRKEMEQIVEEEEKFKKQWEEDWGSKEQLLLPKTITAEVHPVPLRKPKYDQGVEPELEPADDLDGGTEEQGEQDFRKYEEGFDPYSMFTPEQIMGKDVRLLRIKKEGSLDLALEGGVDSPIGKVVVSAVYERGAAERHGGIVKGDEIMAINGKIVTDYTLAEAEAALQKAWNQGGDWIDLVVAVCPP
Description: MST; as a1 but 150 mM NaCl (for FL-Harmonin-a); YFP-fused partner constant at 100 nM, non-fluorescent protein titrated.

The target of experiment [5] is T4, Harmonin NPDZ1 (GST removed, as used in ITC) (human, UniProt Q9Y6N9-1 1-197).
T4 construct: Harmonin-a1 (USH1C), human, residues 1-197 of UniProt Q9Y6N9-1; not shown: GST, N-terminal, cleaved
T4 sequence (looked up): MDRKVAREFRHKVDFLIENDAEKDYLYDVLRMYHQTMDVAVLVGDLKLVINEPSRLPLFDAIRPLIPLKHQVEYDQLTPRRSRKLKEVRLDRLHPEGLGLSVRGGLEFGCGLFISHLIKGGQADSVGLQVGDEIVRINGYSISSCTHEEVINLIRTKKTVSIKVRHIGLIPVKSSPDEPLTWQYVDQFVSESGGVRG
Briefly: ITC; Microcal iTC200, 10 °C; 20 mM HEPES pH 7.0, 100 mM NaCl, 0.5 mM TCEP, 1 mM EGTA; single binding site model; GST removed from harmonin. (In general: In ITC the heat of successive injections is recorded.)

Experiment [6] deals with T5, Myosin 7b MF2 (human, UniProt Q6PIF6 1605-2116).
T5 construct: also called M7b MF2; Myo7b MF2; source: E. coli (BL21-AI, BL21 (DE3) Rosetta or BL21-Gold (DE3)), purified (Histrap, CaptoQ, gel filtration)
T5 sequence (looked up): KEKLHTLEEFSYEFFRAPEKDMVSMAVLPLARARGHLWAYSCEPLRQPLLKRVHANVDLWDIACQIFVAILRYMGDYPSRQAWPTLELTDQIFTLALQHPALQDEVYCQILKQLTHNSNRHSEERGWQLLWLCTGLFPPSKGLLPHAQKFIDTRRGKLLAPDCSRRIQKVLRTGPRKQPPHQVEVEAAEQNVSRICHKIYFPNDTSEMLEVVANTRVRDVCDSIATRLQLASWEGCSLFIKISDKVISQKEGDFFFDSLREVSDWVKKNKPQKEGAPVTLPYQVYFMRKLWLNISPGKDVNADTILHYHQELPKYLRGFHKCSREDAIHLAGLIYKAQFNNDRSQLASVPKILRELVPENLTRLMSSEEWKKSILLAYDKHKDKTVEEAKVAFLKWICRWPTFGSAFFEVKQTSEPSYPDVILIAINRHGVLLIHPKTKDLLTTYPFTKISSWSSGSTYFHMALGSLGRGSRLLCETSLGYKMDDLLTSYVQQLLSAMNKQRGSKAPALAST
Described as above.

The target of experiment [7] is T6, Myosin 7a MF2 (human, UniProt Q13402-1 1702-2215).
T6 construct: Myosin 7a, human, C-terminal MyTH4-FERM domain (MF2), residues 1702-2215 of UniProt Q13402-1; Thrombin site of the vector replaced by an SSG linker; also called M7a MF2; Myo7a MF2; source: E. coli (BL21-AI, BL21 (DE3) Rosetta or BL21-Gold (DE3)), purified (Histrap, CaptoQ, gel filtration)
T6 sequence (looked up): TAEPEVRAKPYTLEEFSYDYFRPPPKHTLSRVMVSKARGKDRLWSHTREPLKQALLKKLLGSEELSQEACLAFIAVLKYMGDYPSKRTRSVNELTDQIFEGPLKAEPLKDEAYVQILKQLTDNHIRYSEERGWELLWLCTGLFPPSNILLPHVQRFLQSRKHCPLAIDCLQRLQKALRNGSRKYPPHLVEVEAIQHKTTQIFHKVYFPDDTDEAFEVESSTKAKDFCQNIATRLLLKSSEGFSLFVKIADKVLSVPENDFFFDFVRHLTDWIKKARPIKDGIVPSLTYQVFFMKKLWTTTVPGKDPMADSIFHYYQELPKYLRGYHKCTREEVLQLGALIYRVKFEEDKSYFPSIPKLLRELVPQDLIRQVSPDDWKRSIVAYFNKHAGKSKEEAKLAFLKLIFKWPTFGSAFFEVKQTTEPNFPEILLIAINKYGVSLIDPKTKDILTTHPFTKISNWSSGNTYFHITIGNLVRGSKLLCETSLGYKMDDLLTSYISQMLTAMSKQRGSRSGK
The experiment is described as above.

For experiment [8], the target named is T2, YFP-Myosin 7b MF2. Description: MST; YFP-fused partner constant at 100 nM, non-fluorescent protein titrated (16 two-fold dilutions); 20 mM Hepes pH 7.0, 100 mM NaCl, 1 mM EGTA, 0.5 mM TCEP, 0.05% Tween 20; Monolith NT.115. The source holds these as a separate data set.

B1: YFP-Harmonin NPDZ1 (domain or fragment, human, UniProt Q9Y6N9-1 1-197, looked up)
chain: MDRKVAREFRHKVDFLIENDAEKDYLYDVLRMYHQTMDVAVLVGDLKLVINEPSRLPLFDAIRPLIPLKHQVEYDQLTPRRSRKLKEVRLDRLHPEGLGLSVRGGLEFGCGLFISHLIKGGQADSVGLQVGDEIVRINGYSISSCTHEEVINLIRTKKTVSIKVRHIGLIPVKSSPDEPLTWQYVDQFVSESGGVRG
notes: Harmonin-a1 (USH1C), human, residues 1-197 of UniProt Q9Y6N9-1; also called ^YFPNPDZ1; source: E. coli BL21 (DE3) Rosetta, purified (Glutathione Sepharose 4B, size-exclusion chromatography)
Regarding B1, the Kd in experiment [1] was 4200 nM.
Take B2: the Kd in experiment [2] turned out to be 1880 nM; in experiment [3], 2790 ± 790 nM; in experiment [4] it was 2000 nM.

B3: Harmonin-a PDZ3c (GST removed, as used in ITC and crystallisation) (domain or fragment, human, UniProt Q9Y6N9-1 428-552, looked up)
chain: QDFRKYEEGFDPYSMFTPEQIMGKDVRLLRIKKEGSLDLALEGGVDSPIGKVVVSAVYERGAAERHGGIVKGDEIMAINGKIVTDYTLAEAEAALQKAWNQGGDWIDLVVAVCPPKEYDDELTFF
notes: Harmonin-a1 (USH1C), human, residues 428-552 of UniProt Q9Y6N9-1; also called PDZ3c (isoA); HarA PDZ3c; not shown: GST, N-terminal, cleaved
For B3, the Kd in experiment [5] worked out at 10000 ± 3000 nM; in experiment [6], 1400 ± 600 nM; in experiment [7] it was 1000 nM.

B4: Harmonin-a PDZ3c F551V-F552V (domain or fragment, human, UniProt Q9Y6N9-1 428-552, looked up)
chain: QDFRKYEEGFDPYSMFTPEQIMGKDVRLLRIKKEGSLDLALEGGVDSPIGKVVVSAVYERGAAERHGGIVKGDEIMAINGKIVTDYTLAEAEAALQKAWNQGGDWIDLVVAVCPPKEYDDELTVV
notes: Harmonin-a1 (USH1C), human, residues 428-552 of UniProt Q9Y6N9-1; also called PDZ3c (isoA) F551V-F552V; source: E. coli BL21 (DE3) Rosetta, purified similarly as wild type
As for B4, the Kd in experiment [8] is 68000 nM; in experiment [3] it was above 100000 nM.

In general, Kd refers to the concentration at which binding is half-saturated. A high value points to a looser complex.
